B1: ZNF232 (parent)
chain: GKAYGWCSELIRHRRVHARKEPSH
B2: GLTSCR2 (parent)
chain: FQRRNMIEPRERAKFKRKYKVKLV

Variants of: B1
Assay: protein stability index of a GFP-peptide fusion (GPS, HEK-293T) (PSI 1-6); higher = more stable
Conditions: c terminus: a fixed tail appended
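Further: lentivirally expressed fusions sorted by FACS into six bins by GFP to DsRed ratio, PSI derived from sequencing read proportions per bin multiplied by bin number.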

Protein stability index of substitutions, site by site:
K20: A 3.19 | S 2.86 | R 2.12 | D 3.45 | Q 2.8 | Y 1.86 | L 1.93 | H 2.97 | I 2.05 | F 1.9 | P 2.62 | C 2.6 | T 3.28 | E 3.07 | W 1.82 | V 3.22 | N 2.58 | G 2.86 | M 2.18
I11: L 2.61 | A 3.41 | V 2.92 | M 3.18 | E 3.43 | N 3.02 | D 3.9 | W 2.79 | Q 4.02 | Y 2.9 | F 2.79 | S 3.8 | C 3.37 | G 3.35 | P 3.11 | H 3.31 | K 3.16 | T 3.34 | R 3.67
A18: L 2.13 | T 3.28 | Q 2.81 | R 3.28 | G 3 | I 3.04 | F 2.49 | D 3.84 | V 2.59 | Y 2.76 | M 3.25 | P 3.33 | C 2.88 | N 2.84 | K 3.19 | H 2.86 | W 1.83 | E 3.74 | S 3.37
S23: C 2.58 | A 2.61 | T 3.03 | F 2.43 | L 2.54 | H 3.16 | D 3.66 | N 3.05 | M 2.12 | Y 2.19 | V 2.82 | K 3.49 | P 2.95 | I 2.48 | E 3.92 | R 2.93 | Q 2.98 | G 3.32 | W 1.76
R15: G 2.61 | C 1.99 | N 2.93 | D 2.61 | W 2.25 | Q 3.07 | H 2.92 | F 2.45 | P 3.25 | Y 2.38 | M 3.16 | V 2.44 | K 3 | E 3.28 | A 2.81 | L 2.02 | T 3.19 | S 3.36 | I 2.56
R12: N 3.36 | D 3.03 | F 2.41 | W 2.14 | H 3.24 | G 2.92 | V 2.31 | Y 2.32 | Q 3.02 | M 2.25 | L 2.65 | S 3.16 | P 3.21 | E 3.54 | I 2.22 | K 3.17 | A 2.82 | T 3.1 | C 2.57
L10: P 3.8 | R 3.35 | Y 2.22 | Q 2.78 | V 3.54 | N 3.54 | S 3.4 | T 3.16 | W 2.77
H17: P 3.02 | Y 2.16 | V 2.84 | K 3.32 | R 3.03 | I 2.51 | A 2.77 | L 2.99 | G 3.57 | C 3.46 | Q 3.04 | F 2.49 | E 3.28 | W 1.87 | T 3.28 | M 2.75 | D 3.36 | N 2.72 | S 2.76
R19: L 1.94 | A 2.54 | H 2.66 | V 2.52 | C 2.68 | P 2.37 | Y 1.81 | Q 3.44 | G 3.01 | K 2.82 | D 3.31 | W 2.15 | M 3.18 | E 3.53 | S 2.8 | F 2.15 | T 2.89 | I 3.09 | N 3.81
H24: I 2.49 | S 3.07 | R 3.15 | D 3.61 | L 2.68 | Q 2.25 | F 2.65 | V 3.54 | K 3.55 | A 3.08 | P 3.08 | C 2.78 | N 3.65 | Y 2.46 | E 2.44 | G 3.7 | T 2.97 | M 2.5 | W 2.03
R14: K 2.61 | H 2.77 | M 1.73 | Y 2.05 | Q 3.08 | T 2.62 | D 2.65 | V 2.45 | L 2.03 | I 2.04 | P 2.95 | G 2.72 | C 1.86 | F 2.33 | A 2.9 | E 2.86 | W 1.94 | N 3.23 | S 2.27
P22: M 2.3 | K 2.92 | L 2.93 | C 2.52 | W 1.79 | F 1.8 | N 2.98 | A 3.39 | E 4.22 | R 3.17 | I 2.27 | S 3.21 | H 3.42 | G 2.71 | Q 3.38 | T 3.02 | V 2.82 | D 3.14 | Y 3.58
E21: A 2.92 | V 3.1 | P 2.79 | I 2.46 | D 2.75 | S 3.3 | C 2.36 | M 2.37 | G 2.58 | N 3.24 | T 2.69 | H 2.63 | W 2.19 | Q 2.69 | R 3.3 | F 2.04 | L 1.91 | Y 2.81 | K 3.15
H13: K 3.29 | M 2.36 | F 1.94 | V 2.1 | D 2.99 | N 2.69 | S 2.57 | T 3.16 | R 3.53 | I 1.89 | Y 2.24 | G 3.46 | P 2.75 | E 3.42 | W 3.04 | C 2.39 | Q 3.22 | L 1.97 | A 2.62
V16: Q 3.53 | H 3.41 | M 3.43 | P 3.35 | R 3.67 | E 3.16 | F 2.87 | Y 2.74 | D 3.49 | N 3.26 | S 3.48 | I 2.42 | W 2.55 | C 2.52 | K 3.22 | T 3.07 | A 2.71 | L 2.9 | G 3.53

Variants of: B2
Assay: as above
Conditions: c terminus: a fixed tail appended

Protein stability index: each site, then its substitutions
R3: A 2.8 | N 2.66 | F 1.75 | E 2.69 | M 2.68 | D 2.71 | L 2.37 | G 2.17 | T 1.79 | I 2.17 | Q 2.26 | Y 1.6 | H 1.93 | P 1.96 | V 2.04 | W 1.58 | S 1.65 | K 2.6 | C 2.38
F1: I 3.03 | N 2.59 | S 2.77 | W 2.41 | Q 2.99 | H 2.69 | C 2.69 | P 3.05 | E 2.57 | L 3.01 | R 3.03 | K 2.96 | V 2.81 | M 2.08 | A 3.04 | T 3.11 | D 2.83 | Y 2.51
R4: D 1.98 | C 2.02 | A 2.21
Q2: S 2.43 | K 2.21 | H 2.21 | G 2.3 | N 2.42 | F 1.58 | L 1.94 | V 1.57 | M 2.7 | W 1.84 | T 2.65 | Y 2.08 | A 1.99 | I 2.08 | P 2.06 | D 2.35 | E 2.3 | C 1.99 | R 2.62

From the supplement of paper PMC10567573
